Assay results taken from article PMC3049778.

Target: GST-H486R optineurin (human) (UniProt Q96CV9)
Assay: pull-down; GST-optineurin or GST-H486R on glutathione agarose beads incubated 6-8 hours with lysates of HeLa cells transfected with HA-CYLD; anti-HA immunoblot

UniProt Q96CV9, sequence (Q96CV9 whole entry H486R): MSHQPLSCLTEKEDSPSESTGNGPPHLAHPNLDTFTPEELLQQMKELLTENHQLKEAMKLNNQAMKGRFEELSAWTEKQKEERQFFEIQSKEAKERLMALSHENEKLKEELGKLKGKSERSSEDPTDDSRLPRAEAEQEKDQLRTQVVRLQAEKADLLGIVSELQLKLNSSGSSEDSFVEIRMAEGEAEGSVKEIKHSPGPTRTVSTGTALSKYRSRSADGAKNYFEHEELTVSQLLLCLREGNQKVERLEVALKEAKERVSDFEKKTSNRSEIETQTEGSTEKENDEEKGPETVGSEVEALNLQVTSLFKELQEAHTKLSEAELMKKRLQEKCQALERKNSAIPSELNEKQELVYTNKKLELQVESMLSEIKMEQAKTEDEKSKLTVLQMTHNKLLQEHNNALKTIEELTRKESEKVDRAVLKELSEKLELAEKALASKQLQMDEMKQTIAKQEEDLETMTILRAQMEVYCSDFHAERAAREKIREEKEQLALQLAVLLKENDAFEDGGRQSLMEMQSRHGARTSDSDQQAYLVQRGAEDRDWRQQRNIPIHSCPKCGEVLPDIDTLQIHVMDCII

Question: Which fold less binding than wild type optineurin does the source give for “HA-tagged CYLD (CYLD cDNA obtained in the yeast two-hybrid screen, in pCDNA3.1-HA) (from UniProt Q9NQC7 403-956) (domain or fragment)” here?
Answer: 5 fold
